Km data for 1 protein are collected here from article PMC6086891, “Adenosine Kinase couples sensing of cellular potassium depletion to purine metabolism” (Scientific Reports, 2018).

Substrate in this series: Nc1ncnc2c1ncn2[C@@H]1O[C@H](COP(=O)(O)OP(=O)(O)OP(=O)(O)O)[C@@H](O)[C@H]1O
Nature of the series: purified protein. Particulars: Mg2+ BS1 (ATP site); adenosine competes with ATP. Type of series: biochemical, Mus musculus.

B1: Adenosine Kinase (mADK) (Mus musculus) (protein)
chain: MAAADEPKPKKLKVEAPQALSENVLFGMGNPLLDISAVVDKDFLDKYSLKPNDQILAEDKHKELFDELVKKFKVEYHAGGSTQNSMKVAQWLIQEPHKAATFFGCIGIDKFGEILKRKAADAHVDAHYYEQNEQPTGTCAACITGGNRSLVANLAAANCYKKEKHLDLERNWVLVEKARVYYIAGFFLTVSPESVLKVARYAAENNRVFTLNLSAPFISQFFKEALMDVMPYVDILFGNETEAATFAREQGFETKDIKEIAKKAQALPKVNSKRQRTVIFTQGRDDTIVAAENDVTAFPVLDQNQEEIIDTNGAGDAFVGGFLSQLVSDKPLTECIRAGHYAASVIIRRTGCTFPEKPDFH
For B1, the Km was 2.1 µM.
